Tests used:
Assay in all cases: SPR
[1] = molecular target: XRCC1 cancer-associated variant R194W (human, UniProt P18887 1-633, R194W)
[2] = molecular target: XRCC1 cancer-associated variant R280H (human, UniProt P18887 1-633, R280H)
[3] = molecular target: XRCC1 cancer-associated variant P161L (human, UniProt P18887 1-633, P161L)
[4] = molecular target: XRCC1 cancer-associated variant Y576S (human, UniProt P18887 1-633, Y576S)
[5] = molecular target: XRCC1 cerebellar ataxia-related K431N mutant (human, UniProt P18887 1-633, K431N)

B1: Aprataxin (APTX), human wild-type full-length (enzyme)
chain: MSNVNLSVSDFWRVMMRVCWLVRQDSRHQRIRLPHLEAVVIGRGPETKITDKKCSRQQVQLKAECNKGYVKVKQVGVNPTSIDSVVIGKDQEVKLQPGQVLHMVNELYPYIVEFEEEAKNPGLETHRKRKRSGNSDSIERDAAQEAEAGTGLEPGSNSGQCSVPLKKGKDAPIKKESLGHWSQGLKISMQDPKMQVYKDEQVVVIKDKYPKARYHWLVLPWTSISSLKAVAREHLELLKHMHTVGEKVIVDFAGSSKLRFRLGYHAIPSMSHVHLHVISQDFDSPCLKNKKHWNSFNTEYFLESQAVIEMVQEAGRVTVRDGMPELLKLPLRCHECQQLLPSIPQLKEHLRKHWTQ
B1 showed a Kd [1] of 686 nM, a Kd [2] of 569 nM and a Kd [3] of 320 nM. The Kd [4] was 422 nM and the Kd [5] was 301 nM.

B2: DNA ligase IIIα, human wild-type full-length (1–922 aa) (enzyme)
chain: MAEQRFCVDYAKRGTAGCKKCKEKIVKGVCRIGKVVPNPFSESGGDMKEWYHIKCMFEKLERARATTKKIEDLTELEGWEELEDNEKEQITQHIADLSSKAAGTPKKKAVVQAKLTTTGQVTSPVKGASFVTSTNPRKFSGFSAKPNNSGEAPSSPTPKRSLSSSKCDPRHKDCLLREFRKLCAMVADNPSYNTKTQIIQDFLRKGSAGDGFHGDVYLTVKLLLPGVIKTVYNLNDKQIVKLFSRIFNCNPDDMARDLEQGDVSETIRVFFEQSKSFPPAAKSLLTIQEVDEFLLRLSKLTKEDEQQQALQDIASRCTANDLKCIIRLIKHDLKMNSGAKHVLDALDPNAYEAFKASRNLQDVVERVLHNAQEVEKEPGQRRALSVQASLMTPVQPMLAEACKSVEYAMKKCPNGMFSEIKYDGERVQVHKNGDHFSYFSRSLKPVLPHKVAHFKDYIPQAFPGGHSMILDSEVLLIDNKTGKPLPFGTLGVHKKAAFQDANVCLFVFDCIYFNDVSLMDRPLCERRKFLHDNMVEIPNRIMFSEMKRVTKALDLADMITRVIQEGLEGLVLKDVKGTYEPGKRHWLKVKKDYLNEGAMADTADLVVLGAFYGQGSKGGMMSIFLMGCYDPGSQKWCTVTKCAGGHDDATLARLQNELDMVKISKDPSKIPSWLKVNKIYYPDFIVPDPKKAAVWEITGAEFSKSEAHTADGISIRFPRCTRIRDDKDWKSATNLPQLKELYQLSKEKADFTVVAGDEGSSTTGGSSEENKGPSGSAVSRKAPSKPSASTKKAEGKLSNSNSKDGNMQTAKPSAMKVGEKLATKSSPVKVGEKRKAADETLCQTKVLLDIFTGVRLYLPPSTPDFSRLRRYFVAFDGDLVQEFDMTSATHVLGSRDKNPAAQQVSPEWIWACIRKRRLVAPC
B2 gave a Kd [1] of 44.9 nM, a Kd [2] of 43.6 nM and a Kd [3] of 37.3 nM. The Kd [4] was 50.4 nM.

— paper PMC8405949 (2021)
